Test results from patent US10603364B2, “Lysosomal targeting and uses thereof” (Shire Human Genetic Therapies, Inc., priority 2014, dated 2020).

Columns and labels:
[1] = test system: SORT1 overexpressing cells; test: Cellular uptake in Sortilin overexpressing cells (intracellular Naglu enzyme activity); type: cell-based; conditions: absence of Neurotensin
Experimental: A cell line was established overexpressing SORT1, using standard technologies known in the art. […] After a specified period of time, the supernatant was removed and the cells were washed repeatedly. Then, cells were lysed and each sample was assayed for Naglu enzyme activity.

wild-type rats [2] = test: Immunohistochemistry of Naglu protein in brain tissue after intrathecal administration; type: in vivo; conditions: for Naglu immunostaining in cerebral cortex / brain parenchyma: 4 and 24 hours post treatment
Experimental: (§1) To evaluate biodistribution of the SORT1-binding Naglu fusion proteins, an in vivo study was conducted using wild-type rats subjected to intrathecal administration of vehicle control (PBS), rhNaglu, Naglu-IGFII, Naglu-SPP, Naglu-SapDC or Naglu-tPRGN. Details of the experimental design are provide in Table 9 below. Previous experiments had shown that Naglu-IGFII but not rhNaglu penetrates into brain tissue and is targeted to lysosomes after intrathecal injection. Accordingly, rhNaglu and Naglu-IGFII were utilized in this study as negative and positive controls, respectively.
Rats were sacrificed either 4 or 24 hours post intrathecal administration of the respective fusion protein. Brain tissue samples were collected, fixed in 10% NBF and processed for paraffin embedding. 5 μm paraffin sections from each tissue assayed were subjected to immunostaining using an anti-human Naglu antibody.

wild-type rats [3] = test: Naglu enzyme activity in liver and brain after intrathecal administration (biodistribution); type: in vivo; conditions: 385 ug/animal; for Naglu enzyme activity in brain: 4 or 24 hours post dose
Experimental: as §1
Rats were sacrificed either 4 or 24 hours post intrathecal administration of the respective fusion protein and total Naglu enzyme activity in the animals' liver and brain tissue was determined using a well-established enzyme activity assay (FIGS. 7A and B). Briefly, brain and liver tissue homogenates were prepared and incubated in the presence of a Naglu specific substrate, i.e., methylumbelliferyl-N-acetyl-α-D-glucosainide; accumulation of cleavage product was then measured by examining fluorescence intensity at 360/460 nm (excitation/emission) using a fluorescent plate reader.

Naglu KO mice [4] = test: Naglu enzyme activity in tissues of Naglu KO mice after intrathecal administration; type: in vivo; conditions: 520 mg/kg brain, 24 hrs post final dose
Experimental: (§2) To evaluate the in vivo activity of Naglu-SPP and its efficacy as a therapeutic for the treatment of lysosomal storage diseases, particularly San B, Naglu-SPP was administered to Naglu KO mice via intrathecal injection. Intrathecal administration of Naglu-IGFII served as a positive control. The experimental conditions used for this assay are described in Tables 10 and 11 below.
24 hours after intrathecal administration of each respective fusion protein, Naglu KO mice were sacrificed and Naglu enzyme activity in various tissues was assayed. Total Naglu activity was evaluated using a well-established enzyme activity assay. Briefly, tissue homogenate was incubated in the presence of the Naglu specific substrate methylumbelliferyl-N-acetyl-α-D-glucosainide, and accumulation of cleavage product was measured by examining fluorescence intensity at 360/460 nm (excitation/emission) using a fluorescent plate reader. […] This increase in enzyme activity was observed over the duration of the 3 week treatment period.

Naglu KO mice [5] = test: Heparan sulfate in brain by LC/MS; type: in vivo; conditions: intrathecal, 520 mg/kg brain, 2× weekly and 3× weekly
Experimental: as §2
In a second assay, we evaluation the total amount of heparan sulfate in the brain of treated KO mice. […] To measure heparan sulfate in mouse brain tissue, a highly sensitive LC/MS method was applied (Lawrence et al, 2012, Nat Chem Biol. 2012 Jan. 8; 8(2):197-204). Briefly, total GAG from brain tissue was extracted by a DEAE column and a desalting column, and then dried and weighted. The extracted GAG was treated with heparin lyases that specifically release unique mono, di and tri saccharides of heparan sulfate, and the sample was then analyzed by LC/MS. The released saccharides were identified and quantified using commercially available saccharide standards of heparan sulfate degradation.

Naglu KO mice [6] = test: Sanfillipo B specific biomarkers in brain by LC/MS; type: in vivo; conditions: intrathecal, 520 mg/kg brain, especially 2× weekly and 3× weekly
Experimental: as §2
Using the same LC/MS technology as used for the quantification of heparin sulfate (see above), the presence of Sanfillipo B specific biomarkers in brains of treated KO mice were evaluated. Naglu deficiency causes the accumulation of certain heparin sulfate degradation products (presented in FIGS. 13A-C) which are natural substrates of Naglu. These biomarkers are the most relevant indications for Naglu deficiency.

Naglu KO mice [7] = test: Total glycosaminoglycan (GAG) in liver and brain, dimethylmethylene blue; type: in vivo; conditions: intrathecal, 520 mg/kg brain; brain significant in 2× and 3× weekly groups
Experimental: as §2
The activity of Naglu-SPP and Naglu-IGFII in vivo was also evaluated by examining the intracellular accumulation of natural substrates of Naglu in treated mice. One such assay was designed to evaluate the total concentration of glycosaminoglycan (GAG) in liver (FIG. 11A) and brain (FIG. 11B) tissue of treated mice in accordance with de Jong et al. (Clin Chem 38(6):803-807, 1992). Briefly, liver tissue was homogenized and total GAG quantified using dimethylmethylene blue. Brain tissue was homogenized and then incubated with pronase and benzonase to break down protein and nucleic acid. Total GAG was then extracted by passing the brain homogenate through a DEAE column. The eluate was further buffer exchanged through a desalting column, and the total GAG content was quantified using dimethylmethylene blue. […] The reduction of total GAG amount in brain tissue was significant in the 2× weekly as well as the 3× weekly treatment groups.

Naglu KO mice [8] = test: Immunohistochemical staining of Lamp-1, GFAP and Iba-1 in brain and liver; type: in vivo; conditions: intrathecal
Experimental: as §2
The lysosomal targeting of Naglu-SPP and Naglu-IGFII was further examined by immunohistochemical analysis. Tissue samples were collected, fixed in 10% NBF and processed for paraffin embedding. For each tissue assayed, 5 μm paraffin sections was subjected to immunostaining using antibodies against lamp lysosomal associated membrane protein 1 (Lamp-1), glial fibrillary acidic protein (GFAP) and the ionized calcium-binding adapter molecule 1 (Iba-1).

B1: Naglu-tPRGN: Fusion protein of human Naglu and Progranulin C-terminal peptide (tPRGN) via GAG3 linker; SEQ ID NO:18, SEQ ID NO:23 (protein)
chain: MEAVAVAAAVGVLLLAGAGGAAGDEAREAAAVRALVARLLGPGPAADFSVSVERALAAKPGLDTYSLGGGGAARVRVRGSTGVAAAAGLHRYLRDFCGCHVAWSGSQLRLPRPLPAVPGELTEATPNRYRYYQNVCTQSYSFVWWDWARWEREIDWMALNGINLALAWSGQEAIWQRVYLALGLTQAEINEFFTGPAFLAWGRMGNLHTWDGPLPPSWHIKQLYLQHRVLDQMRSFGMTPVLPAFAGHVPEAVTRVFPQVNVTKMGSWGHFNCSYSCSFLLAPEDPIFPIIGSLFLRELIKEFGTDHIYGADTFNEMQPPSSEPSYLAAATTAVYEAMTAVDTEAVWLLQGWLFQHQPQFWGPAQIRAVLGAVPRGRLLVLDLFAESQPVYTRTASFQGQPFIWCMLHNFGGNHGLFGALEAVNGGPEAARLFPNSTMVGTGMAPEGISQNEVVYSLMAELGWRKDPVPDLAAWVTSFAARRYGVSHPDAGAAWRLLLRSVYNCSGEACRGHNRSPLVRRPSLQMNTSIWYNRSDVFEAWRLLLTSAPSLATSPAFRYDLLDLTRQAVQELVSLYYEEARSAYLSKELASLLRAGGVLAYELLPALDEVLASDSRFLLGSWLEQARAAAVSEAEADFYEQNSRYQLTLWGPEGNILDYANKQLAGLVANYYTPRWRLFLEALVDSVAQGIPFQQHQFDKNVFQLEQAFVLSKQRYPSQPRGDTVDLAKKIFLKYYPRWVAGSWGAPGGGGGAAAAAGGGGGGAPGGGGGAAAAAGGGGGGAPGGGGGAAAAAGGGGGGAPTKCLRREAPRWDAPLRDPALRQLL
**Q.** B1 was tested. Which Bmax of binding/uptake [1] did it give?
**A.** The Bmax of binding/uptake was 2060 nmol/h/mg.

**Q.** What about the “cellular internalization (intracellular Naglu activity)” value [1] of the same molecule?
**A.** Its value is “effectively internalized”.

**Q.** And the “Naglu immunostaining in cerebral cortex / brain parenchyma” value (wild-type rats [2])?
**A.** Its value is “little to no Naglu signal”.

**Q.** And the “Naglu enzyme activity in brain” value (wild-type rats [3])?
**A.** The value was “markedly elevated levels”.

B2: Naglu-SapDC: Fusion protein of human Naglu and Prosaposin DC peptide (SapDC) via GAG3 linker; SEQ ID NO:19, SEQ ID NO:24 (protein)
chain: MEAVAVAAAVGVLLLAGAGGAAGDEAREAAAVRALVARLLGPGPAADFSVSVERALAAKPGLDTYSLGGGGAARVRVRGSTGVAAAAGLHRYLRDFCGCHVAWSGSQLRLPRPLPAVPGELTEATPNRYRYYQNVCTQSYSFVWWDWARWEREIDWMALNGINLALAWSGQEAIWQRVYLALGLTQAEINEFFTGPAFLAWGRMGNLHTWDGPLPPSWHIKQLYLQHRVLDQMRSFGMTPVLPAFAGHVPEAVTRVFPQVNVTKMGSWGHFNCSYSCSFLLAPEDPIFPIIGSLFLRELIKEFGTDHIYGADTFNEMQPPSSEPSYLAAATTAVYEAMTAVDTEAVWLLQGWLFQHQPQFWGPAQIRAVLGAVPRGRLLVLDLFAESQPVYTRTASFQGQPFIWCMLHNFGGNHGLFGALEAVNGGPEAARLFPNSTMVGTGMAPEGISQNEVVYSLMAELGWRKDPVPDLAAWVTSFAARRYGVSHPDAGAAWRLLLRSVYNCSGEACRGHNRSPLVRRPSLQMNTSIWYNRSDVFEAWRLLLTSAPSLATSPAFRYDLLDLTRQAVQELVSLYYEEARSAYLSKELASLLRAGGVLAYELLPALDEVLASDSRFLLGSWLEQARAAAVSEAEADFYEQNSRYQLTLWGPEGNILDYANKQLAGLVANYYTPRWRLFLEALVDSVAQGIPFQQHQFDKNVFQLEQAFVLSKQRYPSQPRGDTVDLAKKIFLKYYPRWVAGSWGAPGGGGGAAAAAGGGGGGAPGGGGGAAAAAGGGGGGAPGGGGGAAAAAGGGGGGAPDGGFCEVCKKLVGYLDRNLEKNSTKQEILAALEKGCSFLPDPYQKQCDQFVAEYEPVLIEILVEVMDPSFVCLKIGACPSAHKPLLGTEKCIWGPSYWCQNTETAAQCNAVEHCKRHVWN
**Q.** How did the “cellular internalization (intracellular Naglu activity)” value [1] turn out when B2 was run?
**A.** Its value is “only a very limited increase”.

**Q.** What about the “Naglu immunostaining in cerebral cortex / brain parenchyma” value (wild-type rats [2]) of the same molecule?
**A.** The value was “little to no Naglu signal”.

**Q.** What about the “Naglu enzyme activity in brain” value (wild-type rats [3]) of the same molecule?
**A.** The value was “markedly elevated levels”.

B3: Naglu-IGFII: Fusion protein of human Naglu and IGF-II residues 8-67 via GAG3 linker; SEQ ID NO:20, SEQ ID NO:25; positive control (protein)
chain: MEAVAVAAAVGVLLLAGAGGAAGDEAREAAAVRALVARLLGPGPAADFSVSVERALAAKPGLDTYSLGGGGAARVRVRGSTGVAAAAGLHRYLRDFCGCHVAWSGSQLRLPRPLPAVPGELTEATPNRYRYYQNVCTQSYSFVWWDWARWEREIDWMALNGINLALAWSGQEAIWQRVYLALGLTQAEINEFFTGPAFLAWGRMGNLHTWDGPLPPSWHIKQLYLQHRVLDQMRSFGMTPVLPAFAGHVPEAVTRVFPQVNVTKMGSWGHFNCSYSCSFLLAPEDPIFPIIGSLFLRELIKEFGTDHIYGADTFNEMQPPSSEPSYLAAATTAVYEAMTAVDTEAVWLLQGWLFQHQPQFWGPAQIRAVLGAVPRGRLLVLDLFAESQPVYTRTASFQGQPFIWCMLHNFGGNHGLFGALEAVNGGPEAARLFPNSTMVGTGMAPEGISQNEVVYSLMAELGWRKDPVPDLAAWVTSFAARRYGVSHPDAGAAWRLLLRSVYNCSGEACRGHNRSPLVRRPSLQMNTSIWYNRSDVFEAWRLLLTSAPSLATSPAFRYDLLDLTRQAVQELVSLYYEEARSAYLSKELASLLRAGGVLAYELLPALDEVLASDSRFLLGSWLEQARAAAVSEAEADFYEQNSRYQLTLWGPEGNILDYANKQLAGLVANYYTPRWRLFLEALVDSVAQGIPFQQHQFDKNVFQLEQAFVLSKQRYPSQPRGDTVDLAKKIFLKYYPRWVAGSWGAPGGGGGAAAAAGGGGGGAPGGGGGAAAAAGGGGGGAPGGGGGAAAAAGGGGGGAPLCGGELVDTLQFVCGDRGFYFSRPASRVSRRSRGIVEECCFRSCDLALLETYCATPAKSE
notes: Fusion protein of human Naglu and IGF-II residues 8-67 via GAG3 linker; positive control
**Q.** B3 was tested. Which “Naglu activity in liver and brain tissue vs vehicle control” value (Naglu KO mice [4]) did it give?
**A.** The value was “dramatic increase”.

**Q.** And the “total amount of heparan sulfate accumulation in brain tissue” value (Naglu KO mice [5])?
**A.** Its value is “strong reduction”.

**Q.** What about the “accumulation of three GAG cleavage products (San B biomarkers) in brain” value (Naglu KO mice [6]) of the same molecule?
**A.** The value was “dramatic decrease”.

**Q.** And the “total GAG concentration in liver and brain tissue vs vehicle control” value (Naglu KO mice [7])?
**A.** The value was “significant reduction”.

**Q.** And the “Lamp-1 immunostaining in brain (cerebral cortex, cerebellum, thalamus, striatum, white matter)” value (Naglu KO mice [8]; 2× weekly and 3× weekly)?
**A.** The value was “decrease”.

**Q.** And the “Lamp-1 immunoreactivity in liver” value (Naglu KO mice [8]; three weekly deliveries)?
**A.** Its value is “reduced significantly”.

**Q.** What about the “GFAP staining in cerebral cortex and cerebellum (astrocytes)” value (Naglu KO mice [8]; three weekly injections) of the same molecule?
**A.** The value was “reduced signal”.

**Q.** And the “Iba-1 staining in cerebral cortex and cerebellum (microglial cells)” value (Naglu KO mice [8]; three weekly injections)?
**A.** The value was “microglial cells had a reduced size and a reduced number of processes”.

**Q.** What about the “Naglu immunostaining in cerebral cortex / brain parenchyma” value (wild-type rats [2]) of the same molecule?
**A.** Its value is “positive staining”.

**Q.** And the “Naglu immunostaining in cerebellum and hippocampal region” value (wild-type rats [2]; 24 hours post injection)?
**A.** Its value is “strong Naglu signal”.

**Q.** What about the “rank of Naglu enzyme activity in brain among treatments” value (wild-type rats [3]) of the same molecule?
**A.** The value was “highest activity”.

**Q.** What about the “Naglu enzyme activity in brain” value (wild-type rats [3]) of the same molecule?
**A.** Its value is “markedly elevated levels”.
